Patent US20140073518A1 (Stanford University, published 2014)
Positions count from the first letter of the chain named. Names and notes keep the numbering of the source.

Assays:
[1] = biological target: T1, Gas6 (growth arrest-specific 6), soluble, hexahistidine-tagged (UniProt Q14393 49-678, limits assumed); assay: yeast surface display, soluble Gas6
T1 construct: also called Gas6 ligand; soluble Gas6
T1 sequence (looked up): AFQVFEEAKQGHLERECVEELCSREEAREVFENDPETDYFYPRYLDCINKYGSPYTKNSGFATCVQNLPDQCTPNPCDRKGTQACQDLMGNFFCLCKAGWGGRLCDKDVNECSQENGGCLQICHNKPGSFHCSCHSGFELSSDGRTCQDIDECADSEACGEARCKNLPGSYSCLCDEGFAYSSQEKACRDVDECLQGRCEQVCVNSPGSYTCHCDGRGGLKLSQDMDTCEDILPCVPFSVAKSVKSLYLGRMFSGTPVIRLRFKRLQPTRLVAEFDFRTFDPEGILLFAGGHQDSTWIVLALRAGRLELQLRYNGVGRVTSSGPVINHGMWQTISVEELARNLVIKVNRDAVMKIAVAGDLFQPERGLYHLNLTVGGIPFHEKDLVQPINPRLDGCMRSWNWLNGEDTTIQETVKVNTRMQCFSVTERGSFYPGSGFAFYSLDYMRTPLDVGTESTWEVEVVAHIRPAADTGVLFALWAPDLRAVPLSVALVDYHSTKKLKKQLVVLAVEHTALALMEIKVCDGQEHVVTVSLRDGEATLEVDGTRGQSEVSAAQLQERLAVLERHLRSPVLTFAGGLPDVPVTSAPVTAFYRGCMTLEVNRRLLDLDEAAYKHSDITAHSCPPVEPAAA

[2] = biological target: T2, soluble αvβ3 integrin (UniProt P06756 31-992; P05106 27-718); assay: yeast surface display, flow cytometry
T2 construct: also called alpha v beta 3 integrin

[3] = biological target: T3, αvβ3 integrin on K562-αvβ3 cells (K562 leukemia cells transfected with αvβ3 integrin) (UniProt P06756 31-1048; P05106 27-788); assay: K562-αvβ3 cell binding assay
T3 construct: whole, on cells; also called cell-surface αvβ3 integrin

[4] = biological target: T4, soluble Alexa-488 labeled human Met-Fc (human, UniProt P08581 25-932, limits assumed, Alexa-488 label); assay: dual receptor direct binding assay, flow cytometry; 220 nM Met-Fc, 2 or 20 nM protein
T4 construct: not shown: Fc part

[5] = biological target: T1, Gas6 (growth arrest-specific 6), …; assay: yeast surface display, flow cytometry
[6] = biological target: T3, αvβ3 integrin on K562-αvβ3 cells (K562 …); assay: binding to cells that express αvβ3 integrin
[7] = biological target: T3, αvβ3 integrin on K562-αvβ3 cells (K562 …); assay: flow cytometry on K562-αvβ3 cells, anti-FLAG detection
[8] = biological target: T3, αvβ3 integrin on K562-αvβ3 cells (K562 …); assay: binding titration of the soluble fusion protein on K562-αvβ3 cells, flow cytometry; the cells express αvβ3 integrin and also Met receptor

T4 sequence (P08581 25-932 limits assumed): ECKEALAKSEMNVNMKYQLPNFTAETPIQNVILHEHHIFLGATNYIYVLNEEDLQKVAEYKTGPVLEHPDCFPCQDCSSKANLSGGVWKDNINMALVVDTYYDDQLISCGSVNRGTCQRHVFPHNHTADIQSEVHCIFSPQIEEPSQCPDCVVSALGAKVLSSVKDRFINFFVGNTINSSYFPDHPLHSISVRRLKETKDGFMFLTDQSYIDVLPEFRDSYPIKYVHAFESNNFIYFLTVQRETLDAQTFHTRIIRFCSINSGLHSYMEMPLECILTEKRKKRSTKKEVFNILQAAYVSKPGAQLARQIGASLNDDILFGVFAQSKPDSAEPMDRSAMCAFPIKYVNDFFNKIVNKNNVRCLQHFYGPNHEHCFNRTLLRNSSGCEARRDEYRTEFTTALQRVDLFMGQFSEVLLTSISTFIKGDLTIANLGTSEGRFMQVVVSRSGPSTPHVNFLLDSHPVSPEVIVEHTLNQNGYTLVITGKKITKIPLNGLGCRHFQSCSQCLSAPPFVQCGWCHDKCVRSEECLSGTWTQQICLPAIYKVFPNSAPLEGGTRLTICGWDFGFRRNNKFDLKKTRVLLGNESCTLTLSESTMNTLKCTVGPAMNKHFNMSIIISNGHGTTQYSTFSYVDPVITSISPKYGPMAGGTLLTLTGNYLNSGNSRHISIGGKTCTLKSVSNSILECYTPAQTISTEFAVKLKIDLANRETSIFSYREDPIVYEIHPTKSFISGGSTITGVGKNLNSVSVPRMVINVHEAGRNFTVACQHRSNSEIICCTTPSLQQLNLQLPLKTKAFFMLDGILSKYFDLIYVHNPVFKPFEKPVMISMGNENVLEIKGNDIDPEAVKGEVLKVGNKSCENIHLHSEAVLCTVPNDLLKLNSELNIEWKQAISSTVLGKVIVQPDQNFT
T3 sequence (P06756 31-1048, chain 1 of 2): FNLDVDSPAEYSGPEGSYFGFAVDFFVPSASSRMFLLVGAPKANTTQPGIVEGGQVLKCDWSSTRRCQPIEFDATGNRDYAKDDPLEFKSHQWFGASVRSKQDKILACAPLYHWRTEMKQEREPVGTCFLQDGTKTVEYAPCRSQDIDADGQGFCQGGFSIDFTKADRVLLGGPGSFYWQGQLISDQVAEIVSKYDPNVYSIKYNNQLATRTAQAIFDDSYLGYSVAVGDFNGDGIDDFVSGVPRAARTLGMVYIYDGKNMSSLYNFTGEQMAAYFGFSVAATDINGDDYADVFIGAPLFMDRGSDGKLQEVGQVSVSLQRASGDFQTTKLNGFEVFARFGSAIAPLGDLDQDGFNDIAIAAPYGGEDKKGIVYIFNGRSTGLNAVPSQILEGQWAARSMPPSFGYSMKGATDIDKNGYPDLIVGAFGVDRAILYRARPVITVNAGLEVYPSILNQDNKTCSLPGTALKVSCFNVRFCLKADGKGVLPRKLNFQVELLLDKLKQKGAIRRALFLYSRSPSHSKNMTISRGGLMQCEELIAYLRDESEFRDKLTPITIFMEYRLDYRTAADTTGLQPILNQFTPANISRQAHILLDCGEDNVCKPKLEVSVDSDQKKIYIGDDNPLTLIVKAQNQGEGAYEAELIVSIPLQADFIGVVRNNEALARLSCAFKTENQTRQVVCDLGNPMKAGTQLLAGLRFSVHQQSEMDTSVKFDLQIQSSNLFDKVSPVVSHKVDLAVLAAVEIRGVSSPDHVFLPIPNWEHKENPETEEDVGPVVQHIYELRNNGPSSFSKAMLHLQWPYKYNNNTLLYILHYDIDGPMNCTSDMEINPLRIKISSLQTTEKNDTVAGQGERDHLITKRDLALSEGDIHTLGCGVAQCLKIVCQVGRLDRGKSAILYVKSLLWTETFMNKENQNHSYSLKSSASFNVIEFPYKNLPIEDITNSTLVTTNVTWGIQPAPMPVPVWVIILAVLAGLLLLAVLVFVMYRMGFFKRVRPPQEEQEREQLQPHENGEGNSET
T3 sequence (P05106 27-788, chain 2 of 2): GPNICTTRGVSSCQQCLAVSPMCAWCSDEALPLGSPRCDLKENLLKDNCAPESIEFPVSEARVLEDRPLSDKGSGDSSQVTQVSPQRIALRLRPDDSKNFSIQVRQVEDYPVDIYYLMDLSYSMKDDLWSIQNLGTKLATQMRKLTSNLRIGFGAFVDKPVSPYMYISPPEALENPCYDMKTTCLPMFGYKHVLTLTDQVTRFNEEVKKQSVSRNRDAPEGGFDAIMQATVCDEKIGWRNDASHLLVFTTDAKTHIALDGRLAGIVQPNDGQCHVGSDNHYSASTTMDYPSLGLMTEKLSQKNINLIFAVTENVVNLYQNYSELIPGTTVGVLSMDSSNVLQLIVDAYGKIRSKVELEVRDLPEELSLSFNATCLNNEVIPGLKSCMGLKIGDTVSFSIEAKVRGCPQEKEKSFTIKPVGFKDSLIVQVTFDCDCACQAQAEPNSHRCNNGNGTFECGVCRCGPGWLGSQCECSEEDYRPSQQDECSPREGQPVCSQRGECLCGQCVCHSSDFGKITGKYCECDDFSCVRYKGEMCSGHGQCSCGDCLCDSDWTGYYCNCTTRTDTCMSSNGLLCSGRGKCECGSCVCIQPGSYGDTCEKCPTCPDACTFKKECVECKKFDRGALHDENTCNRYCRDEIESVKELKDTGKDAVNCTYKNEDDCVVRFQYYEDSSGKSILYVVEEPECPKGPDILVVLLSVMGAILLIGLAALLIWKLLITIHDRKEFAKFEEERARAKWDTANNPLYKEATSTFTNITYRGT
T2 sequence (P06756 31-992, chain 1 of 2): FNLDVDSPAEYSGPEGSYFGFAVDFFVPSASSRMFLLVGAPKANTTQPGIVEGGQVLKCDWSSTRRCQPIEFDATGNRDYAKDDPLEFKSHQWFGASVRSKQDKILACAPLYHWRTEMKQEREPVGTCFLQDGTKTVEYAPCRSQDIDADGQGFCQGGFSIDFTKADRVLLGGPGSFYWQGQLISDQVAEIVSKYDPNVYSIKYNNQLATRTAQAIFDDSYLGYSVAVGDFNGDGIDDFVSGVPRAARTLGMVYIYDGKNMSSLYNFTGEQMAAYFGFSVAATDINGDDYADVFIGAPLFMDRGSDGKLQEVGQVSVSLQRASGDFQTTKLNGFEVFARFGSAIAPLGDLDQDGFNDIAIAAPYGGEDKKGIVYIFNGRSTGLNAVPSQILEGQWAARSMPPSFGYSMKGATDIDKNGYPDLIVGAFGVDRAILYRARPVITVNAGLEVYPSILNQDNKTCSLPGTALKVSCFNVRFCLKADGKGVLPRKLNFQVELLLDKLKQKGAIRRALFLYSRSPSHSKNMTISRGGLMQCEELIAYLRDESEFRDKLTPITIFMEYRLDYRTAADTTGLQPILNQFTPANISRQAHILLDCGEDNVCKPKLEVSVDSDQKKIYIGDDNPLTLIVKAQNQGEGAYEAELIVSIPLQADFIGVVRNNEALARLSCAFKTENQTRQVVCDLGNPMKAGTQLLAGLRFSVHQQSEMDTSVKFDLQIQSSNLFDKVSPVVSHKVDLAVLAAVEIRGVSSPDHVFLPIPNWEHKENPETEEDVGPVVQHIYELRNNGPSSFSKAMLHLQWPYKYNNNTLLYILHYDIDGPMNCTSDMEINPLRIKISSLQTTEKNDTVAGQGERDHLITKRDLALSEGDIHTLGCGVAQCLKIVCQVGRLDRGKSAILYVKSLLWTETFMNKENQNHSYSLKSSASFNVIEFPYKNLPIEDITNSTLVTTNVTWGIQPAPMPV
T2 sequence (P05106 27-718, chain 2 of 2): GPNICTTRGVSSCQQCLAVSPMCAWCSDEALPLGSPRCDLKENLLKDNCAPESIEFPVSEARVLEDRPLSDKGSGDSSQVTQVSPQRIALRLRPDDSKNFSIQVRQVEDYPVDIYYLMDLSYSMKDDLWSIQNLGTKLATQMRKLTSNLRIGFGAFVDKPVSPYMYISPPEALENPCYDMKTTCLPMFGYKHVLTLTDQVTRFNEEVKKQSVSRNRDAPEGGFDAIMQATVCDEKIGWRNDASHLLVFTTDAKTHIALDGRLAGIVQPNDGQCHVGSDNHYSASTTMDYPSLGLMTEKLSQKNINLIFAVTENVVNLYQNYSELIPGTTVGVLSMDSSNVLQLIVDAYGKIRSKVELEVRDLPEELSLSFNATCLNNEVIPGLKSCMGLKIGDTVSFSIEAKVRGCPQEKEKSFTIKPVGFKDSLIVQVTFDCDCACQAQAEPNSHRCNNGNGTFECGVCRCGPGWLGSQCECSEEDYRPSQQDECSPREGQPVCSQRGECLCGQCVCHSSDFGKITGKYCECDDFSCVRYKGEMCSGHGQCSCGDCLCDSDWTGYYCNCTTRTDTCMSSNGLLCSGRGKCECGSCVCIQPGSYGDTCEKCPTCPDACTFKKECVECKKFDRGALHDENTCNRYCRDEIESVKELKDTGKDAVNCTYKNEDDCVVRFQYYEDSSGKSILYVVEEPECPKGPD

Binder: GCSWSTLARCKQDSDCLAGCVCMLEPGMRSCGS (designed binder, also called EETI-II mutants alone) [EETI-II mutant of EA 8.04 alone (expressed without Axl)]
- binding result [1]: no binding

B1: wild-type Axl Ig1 (yeast-displayed) (receptor)
chain: APRGTQAEESPFVGNPGNITGARGLTGTLRCQLQVQGEPPEVHWLRDGQILELADSTQTQVPLGEDEQDDWIVVSQLRITSLQLSDTGQYQCLVFLGHQTFVSQPGYVGLEGLP
notes: T0017 footnote says amino acids 19-132; also called Wt Axl; wt Axl Ig1
- binding result [2]: no binding (tested: 20, 50 or 100 nM αvβ3 integrin)

B2: EETI2.5F-M2.2(D127A) fusion protein (designed binder)
chain: DYKDDDDKPRGCPRPRGDNPPLTCSQDSDCLAGCVCGPNGFCGYAEGQRKRRNTIHEFKKSAKTTLIKIDPALKIKTEKVNTADQCANRCTRNKGLPFTCKAFVFDKARKRCLWFPFNSMSSGVKKEFGHEFDLYENKDYIRACIIGNGRSYRGTVSITKSGIKCQPWSSMIPHEHSFLPSSYRGEDLRENYCRNPRGEEGGPWCFTSDPEVRYEVCDIPQCSEVETRHHHHHH
- Kd [3]: 4.6 nM
- binding result [4]: binds

B3: EETI2.5F-M2.2 fusion protein (designed binder)
chain: B2 chain with A143D
- binding result [4]: binds

Binder: GCPQGRGDWAPTSCKQDSDCRAGCVCGPNGFCG (designed binder, also called EETI 2.5D) [EETI-II mutant 2.5D (yeast-displayed)]
- binding result [5]: no binding (tested: 0.2, 2 or 20 nM Gas6)

B4: EETI 2.5D-Axl fusion protein (soluble, produced in P. pastoris) (designed binder)
chain: GCPQGRGDWAPTSCSQDSDCLAGCVCGPNGFCGSRGTQAEESPFVGNPGNITGARGLTGTLRCQLQVQGEPPEVHWLRDGQILELADSTQTQVPLGEDEQDDWIVVSQLRITSLQLSDTGQYQCLVFLGHQTFVSQPGYVGLEGLP
notes: Treated with endoH; monomeric; also called 2.5D - Axl Ig1; recombinantly produced EETI 2.5D-Axl
- Kd [6]: ~2 nM
- Kd [7]: 1.72 nM

B5: AgRp7A-M2.2 fusion protein (designed binder)
chain: DYKDDDDKPRGCVRLHESCLGQQVPCCDPAATCYCSGRGDNDLVCYCRYAEGQRKRRNTIHEFKKSAKTTLIKIDPALKIKTEKVNTADQCANRCTRNKGLPFTCKAFVFDKARKRCLWFPFNSMSSGVKKEFGHEFDLYENKDYIRDCIIGNGRSYRGTVSITKSGIKCQPWSSMIPHEHSFLPSSYRGEDLRENYCRNPRGEEGGPWCFTSDPEVRYEVCDIPQCSEVETRHHHHHH
- binding result [4]: binds

B6: AgRP7A-Aras4 fusion protein (soluble, FLAG and His tagged) (designed binder)
chain: B5 chain with R54G, K79R, V85A, N98S, D144A, N153R, S156N, S175A, F211Y
notes: Produced in Pichia pastoris
- EC50 (read off the curve) [8]: ~1 nM

B7: AgRp7A-M2.2(D127A) fusion protein (designed binder)
chain: B5 chain with D148A
- Kd [3]: 2.1 nM
- binding result [4]: binds

Binder: GCALMTPSAVDCKQDSDCLAGCVCLPGMVRCGS (designed binder, also called EETI-II mutants alone) [EETI-II mutant of EA 7.01 alone (expressed without Axl)]
- binding result [1]: no binding

Binder: GCLGGVALAHCKQDSDCLAGCVCHILPELCGS (designed binder, also called EETI-II mutants alone) [EETI-II mutant of EA 7.06 alone (expressed without Axl)]
- binding result [1]: no binding
